Columns and labels:
BRD4 [1] = target: T1, BRD4 (human, UniProt O60885 1-1362); experiment: GST pull-down of Flag-BRD4 from PC-3 cells
T1 construct: One entry covers endogenous, Flag-tagged and HA-tagged full-length BRD4; also called FLAG-BRD4; Flag-BRD4

BRD2 [2] = target: T2, BRD2 (human, UniProt P25440 1-801); experiment: co-IP of endogenous proteins in PC-3 cells
T2 construct: One entry covers endogenous and FLAG-tagged full-length BRD2; also called FLAG-BRD2; Flag-BRD2
Method: (§1) To immunoprecipitate the ectopically expressed FLAG-tagged proteins, transfected cells were lysed 24 hours post-transfection in BC100 buffer. The whole-cell lysates were immunoprecipitated with the monoclonal anti-FLAG antibody-conjugated M2 agarose beads (Sigma-Aldrich) at 4° C. overnight. After three washes with lysis buffer, followed by two washes with BC100 buffer, the bound proteins were eluted using FLAG-Peptide (Sigma-Aldrich) prepared in BC100 for 3 hours at 4° C. The eluted protein sample was resolved by SDS-PAGE. To immunoprecipitate the endogenous proteins, cells were lysed with 1× cell lysis buffer (Cell Signaling Technology), and the lysate was centrifuged. The supernatant was precleared with protein A/G beads (Sigma-Aldrich) and incubated with the indicated antibody and protein A/G beads at 4° C. overnight. Beads were washed five times with lysis buffer and resuspended in sample buffer and analyzed by SDS-PAGE.

BRD3 [3] = target: T3, BRD3 (human, UniProt Q15059 1-726); experiment: co-IP of endogenous proteins in PC-3 cells
T3 construct: One entry covers endogenous and FLAG-tagged full-length BRD3; also called FLAG-BRD3; Flag-BRD3
Method: as §1

BRD4 [4] = target: T1, BRD4; experiment: co-IP from 293T cells transfected with Flag-tagged USPs (DUB3 and other DUBs) and HA-BRD4
Method: as §1

[5] = target: T4, BRD2 SBC motif-deleted mutant (human, UniProt P25440 1-801, limits assumed); experiment: co-IP (anti-FLAG) in 293T cells
T4 construct: The deleted residues are not numbered in the text; also called FLAG-BRD2 mutant; not shown: FLAG tag

[6] = target: T5, BRD3 SBC motif-deleted mutant (human, UniProt Q15059 1-726, limits assumed); experiment: co-IP (anti-FLAG) in 293T cells
T5 construct: The deleted residues are not numbered in the text; also called FLAG-BRD3 mutant; not shown: FLAG tag

[7] = target: T6, BRD4 SBC motif-deleted mutant (human, UniProt O60885 1-1362, limits assumed); experiment: co-IP (anti-FLAG) in 293T cells
T6 construct: The deleted residues are not numbered in the text; also called FLAG-BRD4 mutant; not shown: FLAG tag

BRD2 [8] = target: T2, BRD2; experiment: figure legend title; yeast two-hybrid and co-IP
Method: (§2) A total of 2×10⁷ independent clones were screened by growth in deficient medium and X-gal staining. The positive clones were subsequently retested in fresh yeast cells, and the identities of prey were determined with interaction sequence tags (ISTs) obtained by DNA sequencing. The reading frame was verified.
as §1

BRD3 [9] = target: T3, BRD3; experiment: co-IP, ectopic in 293T and endogenous in LNCaP cells
Method: as §1

DEK = target: T7, DEK (human, UniProt P35659 2-375, limits assumed); experiment: yeast two-hybrid screen, human fetal brain cDNA library
T7 construct: Positive clone of the yeast two-hybrid screen
T7 sequence (looked up): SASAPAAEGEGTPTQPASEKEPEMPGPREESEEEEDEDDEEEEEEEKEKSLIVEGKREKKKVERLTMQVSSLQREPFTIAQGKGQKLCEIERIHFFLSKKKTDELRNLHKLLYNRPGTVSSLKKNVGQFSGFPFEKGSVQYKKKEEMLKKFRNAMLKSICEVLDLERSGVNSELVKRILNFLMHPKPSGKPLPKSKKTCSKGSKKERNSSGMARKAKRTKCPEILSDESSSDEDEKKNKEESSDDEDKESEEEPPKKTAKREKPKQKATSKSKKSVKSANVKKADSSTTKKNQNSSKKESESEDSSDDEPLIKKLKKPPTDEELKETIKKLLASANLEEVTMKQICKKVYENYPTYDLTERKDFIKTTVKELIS
Method: as §2

SRC-3 = target: T8, SRC-3 (human, UniProt Q9Y6Q9 2-1424, limits assumed); experiment: as above
T8 construct: Positive clone of the yeast two-hybrid screen
Method: as §2

B1: GST-DUB3 C-terminal fragment (other, UniProt Q6R6M4 399-530, looked up)
chain: TDRRATQGELKRDHPCLQAPELDERLVERATQESTLDHWKFPQEQNKTKPEFNVRKVEGTLPPNVLVIHQSKYKCGMKNHHPEQQSSLLNLSSTTRTDQESVNTGTLASLQGRTRRSKGKNKHSKRALLVCQ
notes: also called C-terminal fragment of DUB3; not shown: glutathione S-transferase (GST) tag
B1: no binding (BRD4 [1]).

B2: DUB3 (enzyme, human, UniProt Q6R6M4 1-530, looked up)
chain: MEDDSLYLGGEWQFNHFSKLTSSRPDAAFAEIQRTSLPEKSPLSSEARVDLCDDLAPVARQLAPRKKLPLSSRRPAAVGAGLQNMGNTCYENASLQCLTYTPPLANYMLSREHSQTCQRPKCCMLCTMQAHITWALHSPGHVIQPSQALAAGFHRGKQEDAHEFLMFTVDAMKKACLPGHKQVDHHSKDTTLIHQIFGGCWRSQIKCLHCHGISDTFDPYLDIALDIQAAQSVKQALEQLVKPEELNGENAYHCGLCLQRAPASKTLTLHTSAKVLILVLKRFSDVTGNKLAKNVQYPECLDMQPYMSQQNTGPLVYVLYAVLVHAGWSCHDGHYFSYVKAQEGQWYKMDDAKVTACSITSVLSQQAYVLFYIQKSEWERHSESVSRGREPRALGAEDTDRRATQGELKRDHPCLQAPELDERLVERATQESTLDHWKFPQEQNKTKPEFNVRKVEGTLPPNVLVIHQSKYKCGMKNHHPEQQSSLLNLSSTTRTDQESVNTGTLASLQGRTRRSKGKNKHSKRALLVCQ
notes: One entry covers endogenous, HA-tagged and Flag-tagged full-length DUB3; also called USP17L2; USP17
B2: no binding (BRD2 [2]); no binding (BRD3 [3]); binds (BRD4 [4]).

B3: SPOP (speckle-type POZ polypeptide), wild-type (other, human, UniProt O43791 1-374, looked up)
chain: MSRVPSPPPPAEMSSGPVAESWCYTQIKVVKFSYMWTINNFSFCREEMGEVIKSSTFSSGANDKLKWCLRVNPKGLDEESKDYLSLYLLLVSCPKSEVRAKFKFSILNAKGEETKAMESQRAYRFVQGKDWGFKKFIRRDFLLDEANGLLPDDKLTLFCEVSVVQDSVNISGQNTMNMVKVPECRLADELGGLWENSRFTDCCLCVAGQEFQAHKAILAARSPVFSAMFEHEMEESKKNRVEINDVEPEVFKEMMCFIYTGKAPNLDKMADDLLAAADKYALERLKVMCEDALCSNLSVENAAEILILADLHSADQLKTQAVDFINYHASDVLETSGWKSMVVSHPHLVAEAYRSLASAQCPFLGPPRKRLKQS
notes: also called SPOP-WT; wild-type SPOP
B3: no binding [5]; no binding [6]; no binding [7]. B3: binds (BRD2 [8]); binds (BRD3 [9]); binds (DEK). B3: binds (SRC-3).
